Results: PMC3157347

Target: V. parahaemolyticus YeaZ, fragment 1-213 as in the crystals (Vibrio parahaemolyticus)
Experiment: crystal structure; X-ray, 3.1 Å; asymmetric unit with four subunits (two dimers related by a non-crystallographic two-fold axis); crystals of fragment 1-213; no nucleotide

V. parahaemolyticus YeaZ, fragment 1-213 as in the crystals (domain or fragment)
stoichiometry N: 2
